Target: SARS-CoV S-6P protein (SARS-CoV; strain of S-6P  …, UniProt P59594, stabilised)
Test: cryo-EM structure

B1: antigen-binding fragment (Fab) of VacW-209 (Fab, V domains shown)
VH: QVQLVESGGGVVQPGRSLRLSCAASGFTFSSIAMHWVRQAPGKGLEWVAVMSFDGSIKYYGDSVKGRFTISRDNSKSTLYLQMNSLRAEDTAVYYCARGVQGYYDRSGYYNLDYNYGMDVWGQGTTVTVSS
VL: QSVLTQPPSVSGAPGQRVTISCTGSSSNIGAGYDVHWYQQLPGTAPKLLIYGNSNRPSGVPDRFSGSKSGTSASLAITGLQAEDEADYYCQSYDSSLSGWVFGGGTKLTVL
stoichiometry N: 3 Fabs per spike trimer
